Residue numbers refer to the chain shown, from its start. Numbered stars: 1 amine (or outer) side, 2 acyl side, 3 side chain; on linkers, the order of the positions; unused ones are H or OH. Square brackets hold non-standard residues; d marks the D form. Side chains are listed from the residue outwards. Ends that are not written are not given here. * marks the point of attachment. C20 diacid = O=C(O)CCCCCCCCCCCCCCCCCCC(=O)*; γGlu = O=C(O)[C@H](CCC(=O)[*:2])N[*:1]; AEEA = NCCOCCOCC(=O)O; Aib = CC(C)(N)C(=O)O

First the molecules themselves.
T1: human GIP receptor (human, UniProt P48546 22-466)
T1 construct: whole, on cells; Used as crude membranes of stably transfected CHO cells; also called hGIPR
T1 sequence (looked up): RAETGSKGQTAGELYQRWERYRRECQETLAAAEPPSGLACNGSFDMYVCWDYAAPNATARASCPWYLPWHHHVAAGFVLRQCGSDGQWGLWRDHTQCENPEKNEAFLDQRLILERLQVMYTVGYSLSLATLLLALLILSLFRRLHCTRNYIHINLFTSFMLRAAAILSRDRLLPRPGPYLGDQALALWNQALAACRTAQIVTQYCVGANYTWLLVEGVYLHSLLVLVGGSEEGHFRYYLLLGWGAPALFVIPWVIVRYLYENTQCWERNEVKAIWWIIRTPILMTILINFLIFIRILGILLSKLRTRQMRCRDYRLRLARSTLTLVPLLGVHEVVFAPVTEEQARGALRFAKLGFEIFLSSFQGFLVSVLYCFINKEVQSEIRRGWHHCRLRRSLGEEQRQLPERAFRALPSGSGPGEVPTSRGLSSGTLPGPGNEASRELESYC

B1: Example 1 (peptide)
peptide: YXEGTXTSDYSIXLDEKAQXEFIXYLIEGGPSSGAPPPS
modifications: Aib2; αMeF(2F)6; αMeL13; K17((2-[2-(2-Amino-ethoxy)-ethoxy]-acetyl)2-(γ-Glu)-CO-(CH2)18-CO2H); Aib20; D-Glu24; C-terminal NH2
B2: Example 211 (peptide)
peptide: B1 peptide with E16K
modifications: Aib2; αMeF(2F)6; αMeL13; K17((2-[2-(2-Amino-ethoxy)-ethoxy]-acetyl)-(γ-Glu)-(2-[2-(2-Amino-ethoxy)-ethoxy]-acetyl)-CO-(CH2)18-CO2H); Aib20; D-Glu24; C-terminal NH2
B3: Example 191 (peptide)
peptide: B1 peptide with Y10V
modifications: Aib2; αMeF(2F)6; αMeL13; K17((2-[2-(2-Amino-ethoxy)-ethoxy]-acetyl)2-(γ-Glu)-CO-(CH2)18-CO2H); Aib20; D-Glu24; C-terminal NH2
B4: Example 183 (peptide)
peptide: B1 peptide with Y10L
modifications: not printed (the compound name of this Example is missing from the table of Examples 6-287)
B5: Example 48 (peptide)
peptide: Y[Aib]EGTFTSDYSILLDKIAQ[Aib]AFIEYLIEGGPSSGAPPPK([AEEA-AEEA-γGlu-C20 diacid])-NH2
modifications: N-terminus assumed
SMILES: CC[C@H](C)[C@H](NC(=O)[C@H](CCCCN)NC(=O)[C@H](CC(=O)O)NC(=O)[C@H](CC(C)C)NC(=O)[C@H](CC(C)C)NC(=O)[C@@H](NC(=O)[C@H](CO)NC(=O)[C@H](Cc1ccc(O)cc1)NC(=O)[C@H](CC(=O)O)NC(=O)[C@H](CO)NC(=O)[C@@H](NC(=O)[C@H](Cc1ccccc1)NC(=O)[C@@H](NC(=O)CNC(=O)[C@H](CCC(=O)O)NC(=O)C(C)(C)NC(=O)[C@@H](N)Cc1ccc(O)cc1)[C@@H](C)O)[C@@H](C)O)[C@@H](C)CC)C(=O)N[C@@H](C)C(=O)N[C@@H](CCC(N)=O)C(=O)NC(C)(C)C(=O)N[C@@H](C)C(=O)N[C@@H](Cc1ccccc1)C(=O)N[C@H](C(=O)N[C@@H](CCC(=O)O)C(=O)N[C@@H](Cc1ccc(O)cc1)C(=O)N[C@@H](CC(C)C)C(=O)N[C@H](C(=O)N[C@@H](CCC(=O)O)C(=O)NCC(=O)NCC(=O)N1CCC[C@H]1C(=O)N[C@@H](CO)C(=O)N[C@@H](CO)C(=O)NCC(=O)N[C@@H](C)C(=O)N1CCC[C@H]1C(=O)N1CCC[C@H]1C(=O)N1CCC[C@H]1C(=O)N[C@@H](CCCCNC(=O)COCCOCCNC(=O)COCCOCCNC(=O)CC[C@H](NC(=O)CCCCCCCCCCCCCCCCCCC(=O)O)C(=O)O)C(N)=O)[C@@H](C)CC)[C@@H](C)CC
B6: Example 110 (peptide)
peptide: YXEGTFTSDYSILLDKKAQXAFIEYLIEGGPSSGAPPPS
modifications: Aib2; K17((2-[2-(2-Amino-ethoxy)-ethoxy]-acetyl)-(γ-Glu)-(Trx)-CO-(CH2)18-CO2H); Aib20; C-terminal NH2
B7: Example 90 (peptide)
peptide: Y[Aib]NGTFTSDYSILLDKK([AEEA-AEEA-γGlu-C20 diacid])AQ[Aib]AFIEYLIEGGPSSGAPPPS-NH2
modifications: N-terminus assumed
SMILES: CC[C@H](C)[C@H](NC(=O)[C@H](CC(C)C)NC(=O)[C@H](Cc1ccc(O)cc1)NC(=O)[C@H](CCC(=O)O)NC(=O)[C@@H](NC(=O)[C@H](Cc1ccccc1)NC(=O)[C@H](C)NC(=O)C(C)(C)NC(=O)[C@H](CCC(N)=O)NC(=O)[C@H](C)NC(=O)[C@H](CCCCNC(=O)COCCOCCNC(=O)COCCOCCNC(=O)CC[C@H](NC(=O)CCCCCCCCCCCCCCCCCCC(=O)O)C(=O)O)NC(=O)[C@H](CCCCN)NC(=O)[C@H](CC(=O)O)NC(=O)[C@H](CC(C)C)NC(=O)[C@H](CC(C)C)NC(=O)[C@@H](NC(=O)[C@H](CO)NC(=O)[C@H](Cc1ccc(O)cc1)NC(=O)[C@H](CC(=O)O)NC(=O)[C@H](CO)NC(=O)[C@@H](NC(=O)[C@H](Cc1ccccc1)NC(=O)[C@@H](NC(=O)CNC(=O)[C@H](CC(N)=O)NC(=O)C(C)(C)NC(=O)[C@@H](N)Cc1ccc(O)cc1)[C@@H](C)O)[C@@H](C)O)[C@@H](C)CC)[C@@H](C)CC)C(=O)N[C@@H](CCC(=O)O)C(=O)NCC(=O)NCC(=O)N1CCC[C@H]1C(=O)N[C@@H](CO)C(=O)N[C@@H](CO)C(=O)NCC(=O)N[C@@H](C)C(=O)N1CCC[C@H]1C(=O)N1CCC[C@H]1C(=O)N1CCC[C@H]1C(=O)N[C@@H](CO)C(N)=O
B8: Example 109 (peptide)
peptide: B6 peptide
modifications: Aib2; K17(AOC-(2-[2-(2-Amino-ethoxy)-ethoxy]-acetyl)-(γ-Glu)-CO-(CH2)18-CO2H); Aib20; C-terminal NH2
B9: Example 108 (peptide)
peptide: B6 peptide
modifications: Aib2; K17((2-[2-(2-Amino-ethoxy)-ethoxy]-acetyl)-AOC-(γ-Glu)-CO-(CH2)18-CO2H); Aib20; C-terminal NH2
B10: Example 58 (peptide)
peptide: Y[Aib]EGTFTSDYSSLLDKK([AEEA-AEEA-γGlu-C20 diacid])AQ[Aib]AFIEYLIEGGPSSGAPPPS-NH2
modifications: N-terminus assumed
SMILES: CC[C@H](C)[C@H](NC(=O)[C@H](CC(C)C)NC(=O)[C@H](Cc1ccc(O)cc1)NC(=O)[C@H](CCC(=O)O)NC(=O)[C@@H](NC(=O)[C@H](Cc1ccccc1)NC(=O)[C@H](C)NC(=O)C(C)(C)NC(=O)[C@H](CCC(N)=O)NC(=O)[C@H](C)NC(=O)[C@H](CCCCNC(=O)COCCOCCNC(=O)COCCOCCNC(=O)CC[C@H](NC(=O)CCCCCCCCCCCCCCCCCCC(=O)O)C(=O)O)NC(=O)[C@H](CCCCN)NC(=O)[C@H](CC(=O)O)NC(=O)[C@H](CC(C)C)NC(=O)[C@H](CC(C)C)NC(=O)[C@H](CO)NC(=O)[C@H](CO)NC(=O)[C@H](Cc1ccc(O)cc1)NC(=O)[C@H](CC(=O)O)NC(=O)[C@H](CO)NC(=O)[C@@H](NC(=O)[C@H](Cc1ccccc1)NC(=O)[C@@H](NC(=O)CNC(=O)[C@H](CCC(=O)O)NC(=O)C(C)(C)NC(=O)[C@@H](N)Cc1ccc(O)cc1)[C@@H](C)O)[C@@H](C)O)[C@@H](C)CC)C(=O)N[C@@H](CCC(=O)O)C(=O)NCC(=O)NCC(=O)N1CCC[C@H]1C(=O)N[C@@H](CO)C(=O)N[C@@H](CO)C(=O)NCC(=O)N[C@@H](C)C(=O)N1CCC[C@H]1C(=O)N1CCC[C@H]1C(=O)N1CCC[C@H]1C(=O)N[C@@H](CO)C(N)=O
B11: Example 87 (peptide)
peptide: B6 peptide
modifications: αMePro2; K17((2-[2-(2-Amino-ethoxy)-ethoxy]-acetyl)2-(γ-Glu)-CO-(CH2)18-CO2H); Aib20; C-terminal NH2
B12: Example 135 (peptide)
peptide: H[Aib]NGTFTSDYSILLDKK([AEEA-AEEA-γGlu-C20 diacid])AQ[Aib]AFIEYLIEGGPSSGAPPPS-NH2
modifications: N-terminus assumed
SMILES: CC[C@H](C)[C@H](NC(=O)[C@H](CC(C)C)NC(=O)[C@H](Cc1ccc(O)cc1)NC(=O)[C@H](CCC(=O)O)NC(=O)[C@@H](NC(=O)[C@H](Cc1ccccc1)NC(=O)[C@H](C)NC(=O)C(C)(C)NC(=O)[C@H](CCC(N)=O)NC(=O)[C@H](C)NC(=O)[C@H](CCCCNC(=O)COCCOCCNC(=O)COCCOCCNC(=O)CC[C@H](NC(=O)CCCCCCCCCCCCCCCCCCC(=O)O)C(=O)O)NC(=O)[C@H](CCCCN)NC(=O)[C@H](CC(=O)O)NC(=O)[C@H](CC(C)C)NC(=O)[C@H](CC(C)C)NC(=O)[C@@H](NC(=O)[C@H](CO)NC(=O)[C@H](Cc1ccc(O)cc1)NC(=O)[C@H](CC(=O)O)NC(=O)[C@H](CO)NC(=O)[C@@H](NC(=O)[C@H](Cc1ccccc1)NC(=O)[C@@H](NC(=O)CNC(=O)[C@H](CC(N)=O)NC(=O)C(C)(C)NC(=O)[C@@H](N)Cc1c[nH]cn1)[C@@H](C)O)[C@@H](C)O)[C@@H](C)CC)[C@@H](C)CC)C(=O)N[C@@H](CCC(=O)O)C(=O)NCC(=O)NCC(=O)N1CCC[C@H]1C(=O)N[C@@H](CO)C(=O)N[C@@H](CO)C(=O)NCC(=O)N[C@@H](C)C(=O)N1CCC[C@H]1C(=O)N1CCC[C@H]1C(=O)N1CCC[C@H]1C(=O)N[C@@H](CO)C(N)=O

T3 sequence (P47871 26-477): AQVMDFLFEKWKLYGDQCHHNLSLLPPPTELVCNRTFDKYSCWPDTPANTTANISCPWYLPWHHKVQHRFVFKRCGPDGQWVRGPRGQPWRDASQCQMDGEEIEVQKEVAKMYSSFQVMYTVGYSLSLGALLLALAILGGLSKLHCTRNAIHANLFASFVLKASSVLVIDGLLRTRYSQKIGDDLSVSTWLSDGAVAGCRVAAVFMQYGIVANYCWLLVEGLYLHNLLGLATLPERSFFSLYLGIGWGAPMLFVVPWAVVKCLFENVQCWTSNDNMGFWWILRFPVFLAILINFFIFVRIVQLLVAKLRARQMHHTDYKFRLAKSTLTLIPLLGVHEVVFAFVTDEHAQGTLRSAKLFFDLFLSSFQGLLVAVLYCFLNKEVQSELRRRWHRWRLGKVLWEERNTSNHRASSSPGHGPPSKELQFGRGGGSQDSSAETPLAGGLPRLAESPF

One assay has as its target T2, human GLP-1 receptor (human, UniProt P43220 24-463).
T2 construct: whole, on cells; Used as crude membranes of stably transfected HEK293 cells; also called hGLP1R; hGLP-1R
Description: SPA, [125I]-GLP-1 displacement, hGLP-1R membranes.
B1 had an inhibition constant (Ki) of 6.67 nM.

The molecule B2 displayed a Ki of 2.64 nM.

As for B3, the Ki came out at 4.52 nM.

As for B4, the inhibition constant Ki turned out to be 4.11 nM.

The molecule B5 returned a Ki of 15.7 nM.

For the molecule B6, the Ki was 4.38 nM.

In the case of B7, the affinity corresponds to a Ki of 4.76 nM.

For the molecule B8, the affinity, expressed as Ki, was 1.34 nM.

As to B9, the Ki was found to be 3 nM.

For the molecule B10, the Ki worked out at 2.77 nM.

B11 had a Ki of 1.79 nM.

Molecule B12 had a Ki of 3.01 nM.

The target of the next assay is T1, human GIP receptor. Description: SPA, [125I]-GIP displacement, hGIPR membranes.
For the molecule B1, the Ki came to 0.0546 nM.

B2 displayed an inhibition constant (Ki) of 0.0243 nM.

Take B3: the affinity corresponds to a Ki of 0.144 nM.

B4: the affinity corresponds to a Ki of 0.0869 nM.

The molecule B5 yielded a Ki of 0.074 nM.

B6: the inhibition constant (Ki) worked out at 0.0395 nM.

For B7, the affinity, expressed as Ki, was 0.0472 nM.

As for B8, affinity was put at a Ki of 0.0279 nM.

B9 had a Ki of 0.0732 nM.

As for B10, affinity was put at a Ki of 0.105 nM.

B11 returned a Ki of 0.034 nM.

On to B12, for which the Ki came out at 0.161 nM.

The next assay concerns the target T3, human glucagon receptor (human, UniProt P47871 26-477).
T3 construct: whole, on cells; Used as crude membranes of stably transfected HEK293 cells; also called hGcgR; hGLcgR
Description: SPA, [125I]-Gcg displacement, hGcgR membranes.
Molecule B1 returned a Ki of 207 nM.

The molecule B2 displayed an inhibition constant (Ki) of 131 nM.

The molecule B3 registered a Ki of 348 nM.

Turning to B4, the affinity, expressed as Ki, was 304 nM.

The molecule B5 came in with a Ki of 111 nM.

Consider B6, for which the inhibitory constant (Ki) amounted to 73.9 nM.

As for B7, the Ki turned out to be 245 nM.

B8 showed a Ki of 43.1 nM.

As for B9, affinity was put at a Ki of 171 nM.

In the case of B10, the Ki is 339 nM.

Take B11: the affinity corresponds to a Ki of 278 nM.

The molecule B12 came in with a Ki of 454 nM.

Values taken from patent publication US20200024322A1 (Eli Lilly, published 2020).
